Where a chain is given by its changes, count along the chain named. Names may count otherwise.
B1: D221N mutant of hexa-Fc (Fc fusion)
chain: NKTHTCPPCPAPELLGGPSVFLFPPKPKDTLMISRTPEVTCVVVDVSHEDPEVKFNWYVDGVEVHNAKTKPREEQYNSTYRVVSVLTVCLQDWLNGKEYKCKVSNKALPAPIEKTISKAKGQPREPQVYTLPPSREEMTKNQVSLTCLVKGFYPSDIAVEWESNGQPENNYKTTPPVLDSDGSFFLYSKLTVDKSRWQQGNVFSCSVMHEALHNHYTQKSLSLSPGKLVLGPPLYNVSLVMSDTAGTCY
modifications: N-linked glycans at Asn221 (N1), Asn297 (N77) and Asn563 (N236)
notes: Made on the hexa-Fc template in CHO-K1 cells; multimeric, hyper-sialylated
B2: D221N/N297A mutant of hexa-Fc (Fc fusion)
chain: B1 chain with N77A
modifications: N-linked glycans at Asn221 (N1) and Asn563 (N236)
notes: Made on the hexa-Fc template in CHO-K1 cells; multimeric
B3: D221N/N297A/N563A mutant of hexa-Fc (Fc fusion)
chain: B1 chain with N77A, N236A
modifications: N-linked glycan at Asn221 (N1)
notes: Made on the hexa-Fc template in CHO-K1 cells; higher order multimers; also called D221/N297A/N563A
B4: D221N/N563A mutant of hexa-Fc (Fc fusion)
chain: B1 chain with N236A
modifications: N-linked glycans at Asn221 (N1) and Asn297 (N77)
notes: Made on the hexa-Fc template in CHO-K1 cells; runs as higher order multimers approximating dodecamers; also called D221/N563A; D221N/N563A dodecamer
B5: N297A mutant of hexa-Fc (Fc fusion)
chain: B1 chain with N1D, N77A
modifications: N-linked glycan at Asn563 (N236)
notes: Made on the hexa-Fc template in CHO-K1 cells; still multimeric (pentamers and hexamers)
B6: N297A/N563A mutant of hexa-Fc (Fc fusion)
chain: B1 chain with N1D, N77A, N236A
modifications: no glycans attached
notes: Made on the hexa-Fc template in CHO-K1 cells; Results-1 says it cannot form oligomers, Results-2 says it forms higher order multimers; also called glycan deficient mutant; N297A/N563A double-knockout
B7: human Siglec-1 (receptor, UniProt Q9BZZ2 20-1641, looked up)
chain: SWGVSSPQDVQGVKGSCLLIPCIFSFPADVEVPDGITAIWYYDYSGQRQVVSHSADPKLVEARFRGRTEFMGNPEHRVCNLLLKDLQPEDSGSYNFRFEISEVNRWSDVKGTLVTVTEEPRVPTIASPVELLEGTEVDFNCSTPYVCLQEQVRLQWQGQDPARSVTFNSQKFEPTGVGHLETLHMAMSWQDHGRILRCQLSVANHRAQSEIHLQVKYAPKGVKILLSPSGRNILPGELVTLTCQVNSSYPAVSSIKWLKDGVRLQTKTGVLHLPQAAWSDAGVYTCQAENGVGSLVSPPISLHIFMAEVQVSPAGPILENQTVTLVCNTPNEAPSDLRYSWYKNHVLLEDAHSHTLRLHLATRADTGFYFCEVQNVHGSERSGPVSVVVNHPPLTPVLTAFLETQAGLVGILHCSVVSEPLATLVLSHGGHILASTSGDSDHSPRFSGTSGPNSLRLEIRDLEETDSGEYKCSATNSLGNATSTLDFHANAARLLISPAAEVVEGQAVTLSCRSGLSPTPDARFSWYLNGALLHEGPGSSLLLPAASSTDAGSYHCRARDGHSASGPSSPAVLTVLYPPRQPTFTTRLDLDAAGAGAGRRGLLLCRVDSDPPARLQLLHKDRVVATSLPSGGGCSTCGGCSPRMKVTKAPNLLRVEIHNPLLEEEGLYLCEASNALGNASTSATFNGQATVLAIAPSHTLQEGTEANLTCNVSREAAGSPANFSWFRNGVLWAQGPLETVTLLPVARTDAALYACRILTEAGAQLSTPVLLSVLYPPDRPKLSALLDMGQGHMALFICTVDSRPLALLALFHGEHLLATSLGPQVPSHGRFQAKAEANSLKLEVRELGLGDSGSYRCEATNVLGSSNTSLFFQVRGAWVQVSPSPELQEGQAVVLSCQVHTGVPEGTSYRWYRDGQPLQESTSATLRFAAITLTQAGAYHCQAQAPGSATTSLAAPISLHVSYAPRHVTLTTLMDTGPGRLGLLLCRVDSDPPAQLRLLHGDRLVASTLQGVGGPEGSSPRLHVAVAPNTLRLEIHGAMLEDEGVYICEASNTLGQASASADFDAQAVNVQVWPGATVREGQLVNLTCLVWTTHPAQLTYTWYQDGQQRLDAHSIPLPNVTVRDATSYRCGVGPPGRAPRLSRPITLDVLYAPRNLRLTYLLESHGGQLALVLCTVDSRPPAQLALSHAGRLLASSTAASVPNTLRLELRGPQPRDEGFYSCSARSPLGQANTSLELRLEGVRVILAPEAAVPEGAPITVTCADPAAHAPTLYTWYHNGRWLQEGPAASLSFLVATRAHAGAYSCQAQDAQGTRSSRPAALQVLYAPQDAVLSSFRDSRARSMAVIQCTVDSEPPAELALSHDGKVLATSSGVHSLASGTGHVQVARNALRLQVQDVPAGDDTYVCTAQNLLGSISTIGRLQVEGARVVAEPGLDVPEGAALNLSCRLLGGPGPVGNSTFAWFWNDRRLHAEPVPTLAFTHVARAQAGMYHCLAELPTGAAASAPVMLRVLYPPKTPTMMVFVEPEGGLRGILDCRVDSEPLASLTLHLGSRLVASSQPQGAPAEPHIHVLASPNALRVDIEALRPSDQGEYICSASNVLGSASTSTYFGVRALHRLHQFQQ
notes: Construct not described; also called sialoadhesin; CD169

Columns and labels:
[1] = molecular target: T1, human FcγRI (human, UniProt P12314 16-288); assay: ELISA, receptor coated on plate
T1 construct: Bought protein, construct not described
Protocol: (§1) ELISAs were used to investigate the binding of oligomeric Fc mutants to FcγRI, FcγRIIA, FcγRIIB, FcγRIIIA and FcγRIIIB (all from R&D laboratories). Receptors were coated down to ELISA plates (Nunc) in carbonate buffer pH9 (Sigma-Aldrich) at 2 μg/ml overnight at 4° C. Plates were then blocked in PBS/0.1% Tween-20 (PBST) containing 4% skimmed milk (Tesco). Plates were then washed three times in PBS/0.1% Tween-20 (PBST) before adding Fc mutants at the indicated concentrations in PBST overnight at 4° C. Plates were washed as above and incubated for 2 h with 1:500 dilution of an alkaline phosphatase conjugated goat Fab′₂ anti-human IgG (Jackson Laboratories). Plates were washed as above and developed for 15 min with 100 μl of a Sigmafast p-nitrophenyl phosphate solution (Sigma-Aldrich). Plates were read at 405 nm and data plotted with Graphpad prism.

[2] = molecular target: T2, human FcγRIIA (human, UniProt P12318 36-218); assay: ELISA, receptor coated on plate
T2 construct: Bought protein, construct not described
T2 sequence (looked up): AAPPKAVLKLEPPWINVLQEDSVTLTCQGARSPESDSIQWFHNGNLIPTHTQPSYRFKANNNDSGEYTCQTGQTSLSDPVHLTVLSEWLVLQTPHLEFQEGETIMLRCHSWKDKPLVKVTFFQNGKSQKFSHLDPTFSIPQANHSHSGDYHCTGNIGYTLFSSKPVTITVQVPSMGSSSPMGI
Protocol: as §1

[3] = molecular target: T3, human FcγRIIB (human, UniProt P31994 46-217); assay: ELISA, receptor coated on plate
T3 construct: Bought protein, construct not described
T3 sequence (looked up): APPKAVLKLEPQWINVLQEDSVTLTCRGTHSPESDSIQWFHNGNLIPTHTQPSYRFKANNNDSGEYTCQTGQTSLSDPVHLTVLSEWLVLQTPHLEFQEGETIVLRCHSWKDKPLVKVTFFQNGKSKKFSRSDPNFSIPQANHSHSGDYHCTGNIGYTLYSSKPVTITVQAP
Protocol: as §1

[4] = molecular target: T4, human FcγRIIIA (human, UniProt P08637 17-208); assay: ELISA, receptor coated on plate
T4 construct: Bought protein, construct not described; also called FcgRIIIA
Protocol: as §1

[5] = molecular target: T5, human FcγRIIIB (human, UniProt O75015 17-200); assay: ELISA, receptor coated on plate
T5 construct: Bought protein, construct not described
Protocol: as §1

[6] = molecular target: T6, soluble recombinant tetrameric human DC-SIGN (human, UniProt Q9NNX6 66-404, limits assumed); assay: ELISA, soluble tetrameric human DC-SIGN (FIG. 12 A)
T6 construct: also called Dendritic Cell-Specific Intercellular adhesion molecule-3-Grabbing Non-integrin
T6 sequence (looked up): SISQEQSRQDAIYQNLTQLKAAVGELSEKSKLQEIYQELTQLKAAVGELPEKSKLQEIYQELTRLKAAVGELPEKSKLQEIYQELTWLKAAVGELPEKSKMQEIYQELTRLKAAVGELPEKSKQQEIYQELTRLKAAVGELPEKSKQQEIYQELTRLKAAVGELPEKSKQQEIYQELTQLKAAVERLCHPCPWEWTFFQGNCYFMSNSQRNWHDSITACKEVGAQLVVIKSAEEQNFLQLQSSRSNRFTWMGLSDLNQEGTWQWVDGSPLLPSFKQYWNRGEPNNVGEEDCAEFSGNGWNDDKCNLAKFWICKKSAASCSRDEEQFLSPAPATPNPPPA

[7] = molecular target: T4, human FcγRIIIA; assay: ELISA, receptor coated on plate (FIG. 4)
Protocol: as §1

[8] = molecular target: B7; assay: ELISA (FIG. 12 B)
[9] = molecular target: T7, monomeric IgG1-Fc control (human, UniProt P01857-1 104-330 = IgG part, limits assumed, N-linked glycan at Asn297); assay: ELISA (FIG. 12 B)
T7 construct: domain: Fc; also called wildtype IgG-Fc; wildtype IgG1-Fc

T1 sequence (P12314 16-288 limits assumed): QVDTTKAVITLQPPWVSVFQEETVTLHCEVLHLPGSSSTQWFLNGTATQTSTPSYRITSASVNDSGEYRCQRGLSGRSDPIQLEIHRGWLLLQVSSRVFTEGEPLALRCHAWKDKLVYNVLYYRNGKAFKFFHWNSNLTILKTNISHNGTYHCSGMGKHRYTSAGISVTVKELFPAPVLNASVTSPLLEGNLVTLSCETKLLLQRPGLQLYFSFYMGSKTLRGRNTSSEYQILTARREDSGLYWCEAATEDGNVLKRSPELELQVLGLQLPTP
T5 sequence (O75015 17-200 limits assumed): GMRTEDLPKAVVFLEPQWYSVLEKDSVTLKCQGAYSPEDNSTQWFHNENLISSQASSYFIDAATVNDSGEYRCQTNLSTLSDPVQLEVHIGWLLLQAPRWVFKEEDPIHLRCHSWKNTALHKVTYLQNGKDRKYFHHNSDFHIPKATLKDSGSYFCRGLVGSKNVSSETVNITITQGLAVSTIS
T4 sequence (P08637 17-208 limits assumed): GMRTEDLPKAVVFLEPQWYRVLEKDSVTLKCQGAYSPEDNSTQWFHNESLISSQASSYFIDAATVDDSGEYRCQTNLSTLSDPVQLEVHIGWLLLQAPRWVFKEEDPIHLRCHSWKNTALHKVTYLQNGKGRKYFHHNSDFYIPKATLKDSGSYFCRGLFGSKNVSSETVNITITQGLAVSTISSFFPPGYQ

Binder	binding result [1]	binding result [2]	binding result [3]	binding result [4]	binding result [5]	binding result [6]	binding result [7]	binding result [8]	binding result [9]
B1	no binding	no binding	no binding	no binding	no binding	–	–	–	–
B2	no binding	no binding	no binding	no binding	no binding	no binding	–	–	–
B3	–	–	–	–	–	no binding	–	–	–
B4	binds	binds	binds	–	binds	–	binds	–	–
B5	no binding	no binding	no binding	no binding	no binding	–	–	–	–
B6	–	–	–	–	–	–	–	no binding	–
B7	–	–	–	–	–	–	–	–	no binding

Source: patent publication US20190151446A1 (LIVERPOOL SCHOOL OF TROPICAL MEDICINE, published 2019)
